Here are results for three molecules from article PMC5820184 (Proteins, 2017).

What all share (test): crystal structure
Data set [1] addresses Sorbitol dehydrogenase (BjSDH) from Bradyrhizobium japonicum (Bradyrhizobium japonicum).
Data set [2] concerns the target Snake Atadenovirus 1 LH3 protein (snake adenovirus 1).
Data set [3] deals with the molecule itself.

The term stoichiometry N denotes the number of molecules, sites or subunits per partner or assembly. Regarding “Sorbitol dehydrogenase (BjSDH) from Bradyrhizobium japonicum (enzyme)”, in data set [1], the stoichiometry N worked out at 4.

On to “Snake Atadenovirus 1 LH3 protein (natural protein)”, for which the stoichiometry N in data set [2] worked out at 3.

B1: FliD_(78-405), flagellar cap protein from Pseudomonas aeruginosa PAO1 (domain or fragment)
chain: NEDILKASATQSAVAGTYQIQVNSLATSSKIALQAIADPANAKFNSGTLNISVGDTKLPAITVDSSNNTLAGMRDAINQAGKEAGVSATIITDNSGSRLVLSSTKTGDGKDIKVEVSDDGSGGNTSLSQLAFDPATAPKLSDGAAAGYVTKAANGEITVDGLKRSIASNSVSDVIDGVSFDVKAVTEAGKPITLTVSRDDAGVKDNVKKFVEAYNTLTKFINEQTVVTKVGEDKNPVTGALLGDASVRALVNTMRSELIASNENGSVRNLAALGITTTKDGTLEIDEKKLDKAISADFEGVASYFTGDTGLAKRLGDKMKPYTDAQGI
Turning to B1, the “stoichiometry N” value in data set [3] worked out at 6.
